Values of other authors in publication PMC2904371.
pKd: −log10 of the molar value.

Biological target: Vinculin tail Vd5 (UniProt P18206)

- pKd: 9.00
Substance: Vinculin head Vd1-Vd4 (from UniProt P18206)
